Experimental data as given in patent US20110059888A1.
[ ]: non-standard residue; d: D form. Phe(3-Me) = Cc1cccc(C[C@H](N)C(=O)O)c1; Phe(4-Me) = Cc1ccc(C[C@H](N)C(=O)O)cc1; Phe(2-Me) = Cc1ccccc1C[C@H](N)C(=O)O; Arg(Me) = CNC(=N)NCCC[C@H](N)C(=O)O; Dap(CONH2) = NC(=O)NC[C@H](N)C(=O)O; Ala(cPr) = N[C@@H](CC1CC1)C(=O)O; Hyp = O=C(O)[C@@H]1C[C@@H](O)CN1; αMeF = C[C@](N)(Cc1ccccc1)C(=O)O; Aad = N[C@@H](CCCC(=O)O)C(=O)O; Cha = N[C@@H](CC1CCCCC1)C(=O)O; Cit = NC(=O)NCCC[C@H](N)C(=O)O; Abu = CC[C@H](N)C(=O)O; Aib = CC(C)(N)C(=O)O

B1: des(1)-Ac-[D-Tyr2,Hyp3,Thr5,αMePhe6,Arg(Me)9,Trp10]MS10 (peptide)
peptide: Ac-[dY][Hyp]NT[αMeF]GL[Arg(Me)]W-NH2
SMILES: CNC(=N)NCCC[C@H](NC(=O)[C@H](CC(C)C)NC(=O)CNC(=O)[C@](C)(Cc1ccccc1)NC(=O)[C@@H](NC(=O)[C@H](CC(N)=O)NC(=O)[C@@H]1C[C@@H](O)CN1C(=O)[C@@H](Cc1ccc(O)cc1)NC(C)=O)[C@@H](C)O)C(=O)N[C@@H](Cc1c[nH]c2ccccc12)C(N)=O
B2: des(1)-Ac-[D-Tyr2,Hyp3,Alb4,Thr5,Arg(Me)9,Trp10]MS10 (peptide)
peptide: Ac-[dY][Hyp][Dap(CONH2)]TFGL[Arg(Me)]W-NH2
SMILES: CNC(=N)NCCC[C@H](NC(=O)[C@H](CC(C)C)NC(=O)CNC(=O)[C@H](Cc1ccccc1)NC(=O)[C@@H](NC(=O)[C@H](CNC(N)=O)NC(=O)[C@@H]1C[C@@H](O)CN1C(=O)[C@@H](Cc1ccc(O)cc1)NC(C)=O)[C@@H](C)O)C(=O)N[C@@H](Cc1c[nH]c2ccccc12)C(N)=O
B3: des(1)-Ac-[D-Tyr2,Glu3,Thr5,Cha6,Ala(cPr)8,Arg(Me)9,Trp10]MS10 (peptide)
peptide: Ac-[dY]ENT[Cha]G[Ala(cPr)][Arg(Me)]W-NH2
SMILES: CNC(=N)NCCC[C@H](NC(=O)[C@H](CC1CC1)NC(=O)CNC(=O)[C@H](CC1CCCCC1)NC(=O)[C@@H](NC(=O)[C@H](CC(N)=O)NC(=O)[C@H](CCC(=O)O)NC(=O)[C@@H](Cc1ccc(O)cc1)NC(C)=O)[C@@H](C)O)C(=O)N[C@@H](Cc1c[nH]c2ccccc12)C(N)=O
B4: des(1)-Ac-[D-Tyr2,Hyp3,Thr5,Ser7,Arg(Me)9,Trp10]MS10 (peptide)
peptide: Ac-[dY][Hyp]NTFSL[Arg(Me)]W-NH2
SMILES: CNC(=N)NCCC[C@H](NC(=O)[C@H](CC(C)C)NC(=O)[C@H](CO)NC(=O)[C@H](Cc1ccccc1)NC(=O)[C@@H](NC(=O)[C@H](CC(N)=O)NC(=O)[C@@H]1C[C@@H](O)CN1C(=O)[C@@H](Cc1ccc(O)cc1)NC(C)=O)[C@@H](C)O)C(=O)N[C@@H](Cc1c[nH]c2ccccc12)C(N)=O
B5: des(1)-Ac-[D-Tyr2,Asp3,Thr5,Cha6,Ala(cPr)8,Arg(Me)9,Trp10]MS10 (peptide)
peptide: Ac-[dY]DNT[Cha]G[Ala(cPr)][Arg(Me)]W-NH2
SMILES: CNC(=N)NCCC[C@H](NC(=O)[C@H](CC1CC1)NC(=O)CNC(=O)[C@H](CC1CCCCC1)NC(=O)[C@@H](NC(=O)[C@H](CC(N)=O)NC(=O)[C@H](CC(=O)O)NC(=O)[C@@H](Cc1ccc(O)cc1)NC(C)=O)[C@@H](C)O)C(=O)N[C@@H](Cc1c[nH]c2ccccc12)C(N)=O
B6: des(1)-Ac-[D-Tyr2,Aad3,Thr5,Cha6,Ala(cPr)8,Arg(Me)9,Trp10]MS10 (peptide)
peptide: Ac-[dY][Aad]NT[Cha]G[Ala(cPr)][Arg(Me)]W-NH2
SMILES: CNC(=N)NCCC[C@H](NC(=O)[C@H](CC1CC1)NC(=O)CNC(=O)[C@H](CC1CCCCC1)NC(=O)[C@@H](NC(=O)[C@H](CC(N)=O)NC(=O)[C@H](CCCC(=O)O)NC(=O)[C@@H](Cc1ccc(O)cc1)NC(C)=O)[C@@H](C)O)C(=O)N[C@@H](Cc1c[nH]c2ccccc12)C(N)=O
B7: des(1)-Ac-[D-Tyr2,Lys3,Thr5,Cha6,Ala(cPr)8,Arg(Me)9,Trp10]MS10 (peptide)
peptide: Ac-[dY]KNT[Cha]G[Ala(cPr)][Arg(Me)]W-NH2
modifications: not fully specified; printed as Ac-D-Tyr-Lys-Asn-Thr-Cha-Gly-Ala(cPr)-Arg(Me)-Trp-NH2
B8: des(1)-Ac-[D-Tyr2,Aib3,Thr5,Cha6,Ala(cPr)8,Arg(Me)9,Trp10]MS10 (peptide)
peptide: Ac-[dY][Aib]NT[Cha]G[Ala(cPr)][Arg(Me)]W-NH2
SMILES: CNC(=N)NCCC[C@H](NC(=O)[C@H](CC1CC1)NC(=O)CNC(=O)[C@H](CC1CCCCC1)NC(=O)[C@@H](NC(=O)[C@H](CC(N)=O)NC(=O)C(C)(C)NC(=O)[C@@H](Cc1ccc(O)cc1)NC(C)=O)[C@@H](C)O)C(=O)N[C@@H](Cc1c[nH]c2ccccc12)C(N)=O

Molecular target: human OT7T175 (metastin receptor) (human) (UniProt Q969F8)
Test: cell-based or functional assay

UniProt Q969F8, sequence (Q969F8 whole entry L364H): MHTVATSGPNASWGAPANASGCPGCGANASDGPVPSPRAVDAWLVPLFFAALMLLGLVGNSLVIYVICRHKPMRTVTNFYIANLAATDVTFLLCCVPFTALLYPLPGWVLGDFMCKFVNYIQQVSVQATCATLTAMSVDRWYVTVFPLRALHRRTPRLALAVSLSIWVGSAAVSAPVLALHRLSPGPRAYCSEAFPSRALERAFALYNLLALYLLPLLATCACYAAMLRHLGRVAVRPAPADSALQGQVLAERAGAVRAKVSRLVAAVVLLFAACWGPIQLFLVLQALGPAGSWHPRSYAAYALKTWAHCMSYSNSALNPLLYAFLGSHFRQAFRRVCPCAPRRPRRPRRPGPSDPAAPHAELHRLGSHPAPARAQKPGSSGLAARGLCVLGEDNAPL

Row | Binder | Specific Activity (EC50 of test compound based on EC50 of Metastin (45-54); intracellular calcium, FLIPR) (ratio to EC50 of Metastin (45-54))
1 | Ac-[dY][Hyp]NTFGL[Arg(Me)]W-NH2 (also: Phe5-Gly6 amide replaced by (R)CHOH-CH2) [des(1)-Ac-[D-Tyr2,Hyp3,Thr5,Phe6Ψ((R)CHOH-CH2)Gly7,Arg(Me)9,Trp10]MS10] | 0.8
2 | B1 | 3.8
3 | Ac-[dY][Hyp]NT[Phe(2-Me)]GL[Arg(Me)]W-NH2 [des(1)-Ac-[D-Tyr2,Hyp3,Thr5,Phe(2Me)6,Arg(Me)9,Trp10]MS10] | 0.7
4 | Ac-[dY][Hyp]NT[Phe(3-Me)]GL[Arg(Me)]W-NH2 [des(1)-Ac-[D-Tyr2,Hyp3,Thr5,Phe(3Me)6,Arg(Me)9,Trp10]MS10] | 0.8
5 | Ac-[dY][Hyp]NTFAL[Arg(Me)]W-NH2 [des(1)-Ac-[D-Tyr2,Hyp3,Thr5,Ala7,Arg(Me)9,Trp10]MS10] | 0.5
6 | Ac-[dY][Hyp]NT[Phe(4-Me)]GL[Arg(Me)]W-NH2 [des(1)-Ac-[D-Tyr2,Hyp3,Thr5,Phe(4Me)6,Arg(Me)9,Trp10]MS10] | 0.9
7 | B2 | 0.5
8 | Ac-[dY][Hyp]NTFGL[Arg(Me)]W-NH2 (also: Gly6-Leu7 amide replaced by (E)CH=CH) [des(1)-Ac-[D-Tyr2,Hyp3,Thr5,Gly7Ψ((E)CH═CH)Leu8,Arg(Me)9,Trp10]MS10] | 0.6
9 | Ac-[dY][Hyp]NTFGL[Arg(Me)]W-NH2 (also: Gly6-Leu7 amide replaced by CH2CH2) [des(1)-Ac-[D-Tyr2,Hyp3,Thr5,Gly7Ψ(CH2CH2)Leu8,Arg(Me)9,Trp10]MS10] | 0.8
10 | Ac-[dY][Hyp]NT[Cha]G[Ala(cPr)][Arg(Me)]W-NH2 [des(1)-Ac-[D-Tyr2,Hyp3,Thr5,Cha6,Ala(cPr)8,Arg(Me)9,Trp10]MS10] | 0.5
11 | B3 | 0.4
12 | Ac-[dY][Hyp]NT[Cha]GL[Arg(Me)]W-NH2 (also: Gly6-Leu7 amide replaced by (E)CH=CH) [des(1)-Ac-[D-Tyr2,Hyp3,Thr5,Cha6,Gly7Ψ((E)CH═CH)Leu8,Arg(Me)9,Trp10]MS10] | 0.6
13 | Ac-[dY][Hyp][Dap(CONH2)]T[Cha]GL[Arg(Me)]W-NH2 (also: Gly7-Leu8 amide bond replaced by (E)-CH═CH-) [des(1)-Ac-[D-Tyr2,Hyp3,Alb4,Thr5,Cha6,Gly7Ψ((E)CH═CH)Leu8,Arg(Me)9,Trp10]MS10] | 0.4
14 | Ac-[dY]ENT[Cha]GL[Arg(Me)]W-NH2 (also: Gly7-Leu8 amide bond replaced by (E)-CH═CH-) [des(1)-Ac-[D-Tyr2,Glu3,Thr5,Cha6,Gly7Ψ((E)CH═CH)Leu8,Arg(Me)9,Trp10]MS10] | 0.5
15 | Ac-[dY]E[Dap(CONH2)]T[Cha]GL[Arg(Me)]W-NH2 (also: Gly7-Leu8 amide bond replaced by (E)-CH═CH-) [des(1)-Ac-[D-Tyr2,Glu3,Alb4,Thr5,Cha6,Gly7Ψ((E)CH═CH)Leu8,Arg(Me)9,Trp10]MS10] | 0.5
16 | B4 | 0.6
17 | Ac-[dY][Hyp][Dap(CONH2)]TFGL[Arg(Me)]W-NH2 (also: Gly7Ψ((E)CH═CH)Leu8: amide between Gly and Leu replaced by (E) alkene) [des(1)-Ac-[D-Tyr2,Hyp3,Alb4,Thr5,Gly7Ψ((E)CH═CH)Leu8,Arg(Me)9,Trp10]MS10] | 0.6
18 | Ac-[dY]ENTFGL[Arg(Me)]W-NH2 (also: Gly7-Leu8 amide bond replaced by (E)-CH═CH-) [des(1)-Ac-[D-Tyr2,Glu3,Thr5,Gly7Ψ((E)CH═CH)Leu8,Arg(Me)9,Trp10]MS10] | 0.6
19 | Ac-[dY]E[Dap(CONH2)]TFGL[Arg(Me)]W-NH2 (also: Gly7-Leu8 amide bond replaced by (E)-CH═CH-) [des(1)-Ac-[D-Tyr2,Glu3,Alb4,Thr5,Gly7Ψ((E)CH═CH)Leu8,Arg(Me)9,Trp10]MS10] | 0.5
20 | B5 | 2.5
21 | B6 | 1.1
22 | B7 | 0.7
23 | B8 | 0.6
24 | Ac-[dY][Hyp]QT[Cha]GL[Arg(Me)]W-NH2 (also: Gly7Ψ((E)CH═CH)Leu8: amide between Gly and Leu replaced by (E) alkene) [des(1)-Ac-[D-Tyr2,Hyp3,Gln4,Thr5,Cha6,Gly7Ψ((E)CH═CH)Leu8,Arg(Me)9,Trp10]MS10] | 1.4
25 | Ac-[dY][Hyp][Cit]T[Cha]GL[Arg(Me)]W-NH2 (also: Gly7Ψ((E)CH═CH)Leu8: amide between Gly and Leu replaced by (E) alkene) [des(1)-Ac-[D-Tyr2,Hyp3,Cit4,Thr5,Cha6,Gly7Ψ((E)CH═CH)Leu8,Arg(Me)9,Trp10]MS10] | 0.9
26 | Ac-[dY][Hyp]ET[Cha]GL[Arg(Me)]W-NH2 (also: Gly7Ψ((E)CH═CH)Leu8: amide between Gly and Leu replaced by (E) alkene) [des(1)-Ac-[D-Tyr2,Hyp3,Glu4,Thr5,Cha6,Gly7Ψ((E)CH═CH)Leu8,Arg(Me)9,Trp10]MS10] | 4.6
27 | Ac-[dY][Hyp]NTFG[Ala(cPr)][Arg(Me)]W-NH2 [des(1)-Ac-[D-Tyr2,Hyp3,Thr5,Ala(cPr)8,Arg(Me)9,Trp10]MS10] | 0.8
28 | Ac-[dY][Hyp]NTF[Abu]L[Arg(Me)]W-NH2 [des(1)-Ac-[D-Tyr2,Hyp3,Thr5,Abu7,Arg(Me)9,Trp10]MS10] | 1
29 | Ac-[dY][Hyp]NT[Cha]G[Cha][Arg(Me)]W-NH2 [des(1)-Ac-[D-Tyr2,Hyp3,Thr5,Cha6,8,Arg(Me)9,Trp10]MS10] | 3.5
